Where two headings read alike, the source gives them in different places.
Assays:
[1] = biological target: T1, human FolR2 on transfected HEK cells (human, UniProt P14207 17-230); assay: flow cytometry on transfected HEK cells
T1 construct: whole, on cells

[2] = biological target: T2, human FolR1 expressed on cells (HeLa, SKOV3, HT-29, transfected HEK cells) (human, UniProt P15328 25-234); assay: flow cytometry on transfected HEK cells
T2 construct: whole, on cells; also called FolR1 on HeLa cells; human FolR1 on cells
T2 sequence (P15328 25-234): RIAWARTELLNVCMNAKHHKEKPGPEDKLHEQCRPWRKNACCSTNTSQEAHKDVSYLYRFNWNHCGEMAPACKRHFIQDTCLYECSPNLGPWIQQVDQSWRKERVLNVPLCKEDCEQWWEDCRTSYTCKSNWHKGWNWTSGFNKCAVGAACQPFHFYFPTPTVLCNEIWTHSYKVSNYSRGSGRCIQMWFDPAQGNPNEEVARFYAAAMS

[3] = biological target: T3, recombinant biotinylated monomeric Fc fusion of human Folate Receptor 3 (hu FolR3 ECD-AcTev-Fcknob-Avi tag … (human, UniProt P0DOX5 223-449 = IgG part, biotin on the C-terminal Avi tag)); assay: SPR Biacore, single injection on immobilized antigen-Fc
T3 construct: also called FolR3-Fc
Procedure, shortened: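 Biacore T200 at 25 °C in HBS-EP (HEPES pH 7.4). Biotinylated FolR-Fc fusions captured on SA chip at about 300-400 RU. IgGs injected once at 500 nM for 60 s to assess cross-reactivity and specificity.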

[4] = biological target: T4, recombinant biotinylated monomeric Fc fusion of cynomolgus Folate Receptor 1 (cy FolR1 ECD-AcTev-Fcknob-Avi … (cynomolgus, UniProt P0DOX5 223-449 = IgG part, biotin on the C-terminal Avi tag)); assay: SPR Biacore, avidity (bivalent, apparent KD), antigen-Fc on SA chip
T4 construct: also called cyFolR1-Fc; cyno FolR1
Procedure: (§1) Binding of FolR1 binders as IgG or in the T-cell bispecific format to different recombinant folate receptors (human FolR1, 2 and 3, murine FolR1 and cynomolgus FolR1; all as Fc fusions) was assessed by surface plasmon resonance (SPR). All SPR experiments were performed on a Biacore T200 at 25° C. with HBS-EP as running buffer (0.01 M HEPES pH 7.4, 0.15 M NaCl, 3 mM EDTA, 0.005% Surfactant P20, Biacore, Freiburg/Germany).
(§2) Recombinant biotinylated monomeric Fc fusions of human, cynomolgus and murine Folate Receptor 1 (FolR1-Fc) were directly coupled on a SA chip using the standard coupling instruction (Biacore, Freiburg/Germany). The immobilization level was about 300-400 RU. The anti-FolR1 IgGs or T cell bispecifics were passed at a concentration range from 2.1 to 500 nM with a flow of 30 μL/minutes through the flow cells over 180 seconds. The dissociation was monitored for 600 seconds. Bulk refractive index differences were corrected for by subtracting the response obtained on reference flow cell immobilized with recombinant biotinylated IL2 receptor Fc fusion. […] The binding curves resulting from the bivalent binding of the IgGs or T cell bispecifics were approximated to a 1:1 Langmuir binding and fitted with that model (which is not correct, but gives an idea of the avidity). The apparent avidity constants for the interactions were derived from the rate constants of the fitting using the Bia Evaluation software (GE Healthcare).

[5] = biological target: T5, recombinant biotinylated monomeric Fc fusion of murine Folate Receptor 1 (mu FolR1 ECD-AcTev-Fcknob-Avitag … (murine, UniProt P0DOX5 223-449 = IgG part, biotin on the C-terminal Avi tag)); assay: as above
T5 construct: also called muFolR1-Fc; murine FolR1
Procedure: as §1, §2

[6] = biological target: T6, recombinant biotinylated monomeric Fc fusion of human Folate Receptor 1 (huFolR1 ECD-AcTev-Fcknob-Avi tag … (human, UniProt P0DOX5 223-449 = IgG part, biotin on the C-terminal Avi tag)); assay: as above
T6 construct: also called huFolR1-Fc; human FolR1-Fc
Procedure: as §1, §2

[7] = biological target: T4, recombinant biotinylated monomeric Fc …; assay: as above; remark: listed apart in the source
Procedure: (§3) The avidity of the interaction between the anti-FolR1 IgG or T cell bispecifics and the recombinant folate receptors was determined as described below (Table 25).
(§4) Recombinant biotinylated monomeric Fc fusions of human, cynomolgus and murine Folate Receptor 1 (FolR1-Fc) were directly coupled on a SA chip using the standard coupling instruction (Biacore, GE Healthcare). The immobilization level was about 300-400 RU. The anti-FolR1 IgGs or T cell bispecifics were passed at a concentration range from 3.7 to 900 nM with a flow of 30 μL/minutes through the flow cells over 180 seconds. The dissociation was monitored for 240 or 600 seconds. The chip surface was regenerated after every cycle using a double injection of 30 sec 10 mM Glycine-HCl pH 2. Bulk refractive index differences were corrected for by subtracting the response obtained on reference flow cell immobilized with recombinant biotinylated murine CD134 Fc fusion. The binding curves resulting from the bivalent binding of the IgG or T cell bispecifics were approximated to a 1:1 Langmuir binding (even though it is a 1:2 binding) and fitted with that model to get an apparent KD representing the avidity of the bivalent binding. The apparent avidity constants for the interactions were derived from the rate constants of the fitting using the Bia Evaluation software (GE Healthcare). For the 1+1 T cell bispecifics format the interaction is a real 1:1 and the KD represents affinity since there is only one FolR1 binder in this construct.

[8] = biological target: T5, recombinant biotinylated monomeric Fc …; assay: as above; remark: listed apart in the source
Procedure: as §3, §4

[9] = biological target: T6, recombinant biotinylated monomeric Fc …; assay: as above; remark: listed apart in the source
Procedure: as §3, §4

T1 sequence (P14207 17-230): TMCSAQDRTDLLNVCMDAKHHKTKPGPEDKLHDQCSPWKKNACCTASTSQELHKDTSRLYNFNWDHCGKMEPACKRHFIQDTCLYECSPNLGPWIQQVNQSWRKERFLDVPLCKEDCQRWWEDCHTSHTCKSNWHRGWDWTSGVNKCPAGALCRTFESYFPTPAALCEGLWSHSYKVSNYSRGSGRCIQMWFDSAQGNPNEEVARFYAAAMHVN

B1: 36F2 IgG (antibody, V domains shown)
VH: QVQLVQSGAEVKKPGASVKVSCKASGYTFTSYYMHWVRQAPGQGLEWMGIINPSGGSTSYAQKFQGRVTMTHDTSTSTVYMELSSLRSEDTAVYYCARSFFTGFHLDYWGQGTLVTVSS
VL: EIVLTQSPGTLSLSPGERATLSCRASQSVSSSYLAWYQQKPGQAPRLLIYGASSRATGIPDRFSGSGSGTDFTLTISRLEPEDFAVYYCQQYTNEHYYTFGQGTKVEIK
- binding result [1]: no binding
- binding result [2]: binds
- binding result [3]: no binding (tested: 500 nM)
- Kd [4]: 5.31 nM
- koff [4]: 0.016 s⁻¹
- kon [4]: 3.02e+06 M⁻¹ s⁻¹
- Kd [5]: 1.63 nM
- koff [5]: 0.000603 s⁻¹
- kon [5]: 370000 M⁻¹ s⁻¹
- Kd [6]: 5.74 nM
- koff [6]: 0.0151 s⁻¹
- kon [6]: 2.62e+06 M⁻¹ s⁻¹
- Kd [7]: 6 nM
- koff [7]: 0.0175 s⁻¹
- kon [7]: 2.78e+06 M⁻¹ s⁻¹
- Kd [8]: 2 nM
- koff [8]: 0.000823 s⁻¹
- kon [8]: 428000 M⁻¹ s⁻¹
- Kd [9]: 6 nM
- koff [9]: 0.013 s⁻¹
- kon [9]: 2.07e+06 M⁻¹ s⁻¹

— patent US20220220224A1 (Hoffmann-La Roche, published 2022)
